The source of these data is a protein production outcome set (Wang et al. 2014).

This data set can be described thus: label from the status in PepcDB records.
Take “MMNRNLVVALAGNPNCGKTSLFNELTGSKQHVGNWPGVTVEKKEGKLKFEGREITIVDLPGTYSLGAYSEDEVVARDFILKDKPDVVINVVDACNLERNLYLTTQILETGAKVVLALNMMDEANTRNIDINIEKLQKSIGIPVVPTVATKKQGIKELVKNAIKLGDSESEELYTIDYGSDIQKEVDGIKAAIDEASVTLEYPKAWVSLKLLENDDYIRKYIDNSIKDDEVKHKVSEGIENLTSIIGYEPDAFIVDKRYELISKFVKNSVKKNEVQEESTSDKIDKVLTNKFLGIPIFAIIMFAVYQVSINFGNGTLSDLINDSLGQLGTNIAFTLDGFGVPKIIGAFVRDGVFAGVGSVLGFFPMILIMFFLISLLEDSGYMARAAYVMDRLMSAVGLHGKTAVSLIVGSGCNVAGIMSARTLESKKDRMIAILITPFISCPARLTVYGVFVGAFFAKQKLGIFSLGGIIIFLLYALGIFVAICAGKFFSSKVFEGETSYFVMELPPYRLPTLKGILIHMWEKSGHFLKKAGTIILGVCIIVWILADLPAGVEYGSKDSLLGIIGTFIAPIFKPAGFGSWQAGVALITGFAAKEAVVGTLGTIYGVNEGTQLFHAIHNTFTPLSAISFMIMTLLYVPCVATIGAVKSETNSNKWTVAVIIYTCVIGWVLATIFYQVGRLLGYV”: the protein production result is listed as “failed”.
For “MMPDKKGYIIDIDGVIGKSVTPIPEGVEGVKKLKELGKKIIFVSNNSTRSRRILLERLRSFGLEVGEDEILVATYATARFIAREKPNAKVFTTGEEGLIEELRLAGLEIVDYDEAEYLVVGSNRKINFELMTKALRACLRGIRYIATNPDRIFPAEDGPIPGTGMIIGALYWMTGREPDVVVGKPSEVIMREALDILGLDAKDVAVVGDQIDVDVAAGKAIGAETVLVLTGVTTRENLDQMIERHGLKPDYVFNSLKDMVEALEG” the value was “not failed”; for “MMPLKDGDFVLINYTVKVVEDGSERVIDTTLEEVAKKSGIYDPKRVYKEFPVIVGKTSLLGPLEKVLKELDVGERREVEVPPEEAFGEYKKELVVRVPVKRLRRMNIPVRVGEEVEAGGRRGKIIRVTERFAFIDFNHPLAGKKLKIEVEVVGKVDSVEDKARILAARALGLDPDKIHAEVREGGKEITLKLPPEVLGLSDLDALLAKAVSDVREYLSPRKVDVVISIEFPEEAREEAEASDTGEGGEAEGESEQAAEPGGGEERQEG”, “failed”; for “MMRHERLRFWLAGLAAAATGWLCYAGLARLAGALGVATWIPYPALRRQWLLIGESWQSAEFSGAIADASVFLTALAAVAAYYCARIVYHLSFAPVRQRRARWLIAGWIVGTVAMVALSQSLGWLYGAFPGFARIGWLSAALGFAVLAGAASGFARAWGRLMRARKVPATE”, “failed”.
In the case of “MMRQVRRGATPPPGPGPSAPPYGAGVPQQPSYTDGQGHGGDGYDSGYNTGQVYGGGGGGQGPGRQVRDRPAPDWRRRIKWTAITVVTVLVVTTVGTYFWADSKLNRDVDLSKVIDRPAAGEGTNYLIVGSDSREGMSKDQMKDLHTGYAEGKRTDSMMILHTGDNGSTLISLPRDSDVEIPSFVGSESGKKYPGTGRHTKLNAAYAEDGPELLVRTVEHNTGLRLDHYVEIGFGGFANIVDAVGGVEIDIPQDIKDKKSGADLKKGKQTLDGQEALAFVRTRYALAGSDLDRTKNQQKFLSALASQVATPSTVLNPFRLYPTMGAGLDSLVVDKDMGLFDLASMFWAMKSVSGGEGTSMNMPISGSVGGNLKWDDAKVKKLVEELKNDEKVTVSGNN” it was “failed”.
Regarding “MMSFSQIINDFIQSFSSINLGGNFKEIVTNPLTILTLIGVLIILVLLIKAKDIKFDAKMLTTIGIALALTAVLNMLKIYKFPQGGGITLGSMIPIILIAYAYGPLVGMLTGFLFGIISLFIDPYILHPVQVLFDYPIPYMALGVAGFFKNHRISGAVVAIFLKFLAHFISGVVFFGSFAPEGMSPILYSFLVNGSLIGADGLICVVLLGILPVNRLIKAISSKSVTSKYAS”, the protein production result was “failed”.
Regarding “MMSGEHTLKAVRGSFIDVTRTIDNPEEIASALRFIEDGLLLIKQGKVEWFGEWENGKHQIPDTIRVRDYRGKLIVPGFVDTHIHYPQSEMVGAYGEQLLEWLNKHTFPTERRYEDLEYAREMSAFFIKQLLRNGTTTALVFGTVHPQSVDALFEAASHINMRMIAGKVMMDRNAPDYLLDTAESSYHQSKELIERWHKNGRLLYAITPRFAPTSSPEQMAMAQRLKEEYPDTWVHTHLCENKDEIAWVKSLYPDHDGYLDVYHQYGLTGKNCVFAHCVHLEEKEWDRLSETKSSIAFCPTSNLYLGSGLFNLKKAWQKKVKVGMGTDIGAGTTFNMLQTLNEAYKVLQLQGYRLSAYEAFYLATLGGAKSLGLDDLIGNFLPGKEADFVVMEPTATPLQQLRYDNSVSLVDKLFVMMTLGDDRSIYRTYVDGRLVYERN”, the protein production entry is listed as “failed”.
For “MMSNGGDSSEIVRELEELKLKKAEIEHRISTLEAKLQDTAAVELYDAVSNGDSYLTAPELEHGLSPDQIYRYSRQLLLPSFAVEACGVGQLGIIDHDVVELNNMHRQIIHTEAFIGHPKVKSAAAACRSINSTIKVDEYVEALRTSNALEILSQYDIIVDATDNPPSRYMISDCCVLLGKPLVSGAALGMEGQLTVYNHNGGPCYRCLFPTPPPTSACQRCSDSGVLGVVPGVIGCLQALETIKLASLVGEPLSERMLLFDALSARMRIVKIRGRSSQCTVCGDNSSFNKQTFKDFDYEDFTQFPLFAGPLNLLPAESRISSKEFKEILQKKEQHVLLDVRPSHHYKIVSLPDSLNIPLANLETRLNELTSALKEKGNGHANTESCTNPSVFVVCRRGNDSQRAVQYLRESGFDSAKDIIGGLEAWAANVNPNFPTY” the value was “failed”.
In the case of “MMSPRIGLTLQKIVETAAEIADANGVQEVTLASLAQTLGVRSPSLYNHVKGLQDVRKNLGIYGIKKLHNRLEEAAEDKRMDEAIHALGEAYVAFVRKHPGLYEATFLRDEEVRKAGDGIVKLCLQVLQQYGLEGENALHATRGFRSICHGFASIEQQGGFGLPLDLDISLHVLLETFIKGLRE” it was “not failed”; in that of “MMSSSRRSFMAAGLVVVLAVAALIFGAPGPVPLSAGSSMSDRGAADTAEAPPKSSWAGRQFRDMTLDEKIAQLFVVRIDGEFQNANTPSYRETVALVEEFGAGGLIFGPGTPMTQIAMANDLQAKAERPLLVAQDTEWGVGMRIDAATSFPPAMAIGATRDASHAYRVGYATAREARALGVHQLYAPVADVNNNPKNPIINVRSFGESPSLVGTMASAFTRGAQRGGTLATVKHFPGHGDTDVDSHINLPVLRFDRSRLDSLELPPFRQAFDAGVRSVMTGHLALPEIAADSVPATLSRPLTHGLLREELGFDGLVVTDALNMQAVTRTFGVGETAVRVLEAGADLVLMSTNPHAAHQAVRQAVTSGRIDTTEINDSVRRLLRVKQDLRLHETRRVSLDTTRHRVAQRSHEVLARTVARESLTLLANADSLLPLTPPEQHDALVVTLSDSEYPGTGDTFVDRLRAQPAIETLDTRRLDPRSDSTDVNDHLADAADYDVVVVPSFLRVQAWSGSIGLSDMHHDFLEDLAGTDTPVAFVAFGNPYAPTGLEPAPDAILAAYGSGEASQRAAAQALGGGAGTPGRLPVTIPGVAEKGEGRRLAPVAPREGPPESVGMDGAQLARLDTLLRSAMLDGAFPGAAVAVGRGPALARLDAYGYHTYDETKPVQTGTQYDLASLTKVVATTTAVMKLYEADSLELDAPVARYLPDFAQNGKEAVTVRQLLTHSSGLKPYLDPDERGPTRAALLDTLMAQPLTYTPGTRSTYSGLNAIALMRIVETISGRPFDAFCRTHIFEPLGMDQTGFYDTDVTRAWVAPTTDTAGTRRRGSVHDPMARDMDGVSGNAGLFSTAADLARFGYMLTHEGRIDGRQFLEPKTIETFTAQADVPGSTRALGWDTKSAEGYSSAGDEFSAASFGHTGYTGTSFWVDPAEDLFFVLLTNRVYPDDTADRITQVRPRAADIVHRAIDGPPRPLLPGPAPEQ”, “failed”.
In the case of “MMTDKLNLNVLDAAFYSLEQTVVQISDRNWFDMQPSIVQDTLIAGAIQKFEFVYELSLKMMKRQLQQDAINTDDIGAYGFKDILREALRFGLIGDMSKWVAYRDMRNITSHTYDQEKAMAVYAQIDDFLIESSFLLEQLRQRNQYD” it was “not failed”.
Take “MMTHYSDNTLKVAHQGFEFFTQGLATGEWQKFLDMLTEDFTFWFPMGEFHGLNVGKERAKEFFTYVSESFHTGIQISSLDRVTSNETTVVFEFRDEGLFLGKPYKNRVAVSFDVRGDKICSYREYFGSDGKSN”: the protein production entry was “not failed”.
For “MMTSAAPKPVRENIARAKAYLRRDDLPRSMAAMATALRELKGTRLIGQARFETEVNIHEYVTELNRHQAVRRFFEAQGVLSTPFVTYAKGAETELAERLESIRAGFEKDVAAHAAQHAAKVAHRKEALLRSGQEKLDAGDAPRGRSFLKRAADEFGHEAGVLTDIGQRLQRAGLLFEAAEMFENAIAAFPKDGHAHAGVVAAYMGLQEYPKAEMAYTRALKQFGTHPKTLVNMARMYLAWRKRDEAWTHIQRALQLAPGDAEAKALLAEIEGRGSRR” the value was “failed”; for “MMVLRMKVEWYLDFVDLNYEPGRDELIVEYYFEPNGVSPEEAAGRIASESSIGTWTTLWKLPEMAKRSMAKVFYLEKHGEGYIAKIAYPLTLFEEGSLVQLFSAVAGNVFGMKALKNLRLLDFHPPYEYLRHFKGPQFGVQGIREFMGVKDRPLTATVPKPKMGWSVEEYAEIAYELWSGGIDLLKDDENFTSFPFNRFEERVRKLYRVRDRVEAETGETKEYLINITGPVNIMEKRAEMVANEGGQYVMIDIVVAGWSALQYMREVTEDLGLAIHAHRAMHAAFTRNPRHGITMLALAKAARMIGVDQIHTGTAVGKMAGNYEEIKRINDFLLSKWEHIRPVFPVASGGLHPGLMPELIRLFGKDLVIQAGGGVMGHPDGPRAGAKALRDAIDAAIEGVDLDEKAKSSPELKKSLREVGLSKAKVGVQH”, “not failed”.
For “MMWEQFKKEKLRGYLEAKNQRKVDFDIVELLDLINSFDDFVTLSSCSGRIAVVDLEKPGDKASSLFLGKWHEGVEVSEVAEAALRSRKVAWLIQYPPIIHVACRNIGAAKLLMNAANTAGFRRSGVISLSNYVVEIASLERIELPVAEKGLMLVDDAYLSYVVRWANEKLLKGKEKLGRLQEALESLQRENAYCSD”, the protein production entry was “not failed”.
For “MMYTNDNRIVMTLDAGGTNFVFSAIQGGKEIADPVVLPACADCLDKCLGNLVEGFKAIQAGLPEAPVAISFAFPGPADYQAGIIGDLPNFPSFRGGVALGPFLEDIFGIPVFINNDGSLFAYGEALTGVLPEINRRLREAGSTKRYKNLLGVTLGTGFGAGVVIDGELLRGDNAAGGYVWCLRNKKYPEYIVEESVSIRAVMRVYAERSGDAGARTPKEIFEIAEGIRPGNREAAIAAFEELGEMAGDALASAITLIDGLIVIGGGLSGASKYILPVLLKEMNAQTGMMDGARFGRLQKEVYDLDEEKSFAGFARGEAVEVLVPGTNRKVGYDPCKRIGVTFSKQGANRSIAMGAYVFALNHLSK” the value was “not failed”.
For “MNADEFVEAFNNAKDLTELELLAELGKSISDDLEGHEKGKVLGTLGNIYYALHRLKEAEEAYLEALNVYLKLSEEDEGFLPYVVGCLYNLGNLYQVSRKFAEAEKAYTDALKVLGDVRNDQRLAILTALGTMYAKLDMKEHAERCLVEAFEMAKVKGDARLLGTLLNNLAVVYQRGGRKREAAMLLKMALDALERVGEDLGIAAVLQNLLPYLDEDELRRVMERLESFGELPIDLKAKIAYFKARRAEEKGEDSAKHYMEAACLGFMAYRNFGFQSINFMHCLDKVIESDSELREDAVVLKKVILKYYYGSQKVEIDFDSRVGRMIKAVLEGDDIYEDGILEDTVRLIAEDLLKAGTKV” the value was “failed”.
For “MNADGWLADTRSSYDTVAVSYADQLRGALAGTPYLRAALELFAGMIHTAGGGPVADVGCGPGHVTAHLHGLGVDAFGIDLSPAMIDVARRDHPDLRFEVGSMTDLNLADASVTALLAFWSLIHVPDDAIPAVFGHFRRVVRPGGPLLLGFHIGDESRLKTEGYGGHPMKVHVHHRQPVQVTAWLRDAGFTVEAQWLLGLDGHIPGAVLFAHRQSLEHHHHHH” the value was “failed”.
